The test addresses MMP-14 catalytic domain (Homo sapiens, UniProt P50281). The test can be described thus: enzyme inhibition assay.

B1: N-TIMP2D-Cys-PEG N-terminal domain (protein)
chain: CSCSPVHPQQAFCNADVVIRAKAVSEKEVDSGNDIYGNPIKRIQYEIKQIKMFKGPEKDIEFIYTAPSSAVCGVSLDVGGKKEYLIAGKAEGDGKMHITLCDFIVPWDTLSTTQKKSLNHRYQMGC
modifications: PEGylated
For B1, the inhibition constant (Ki) is 180 pM.

What is called Ki is a measure of affinity in units of concentration, obtained from inhibition or displacement. High values mean a looser hold on the target, low ones a stronger hold on the target.
